Laboratory results reported in patent US20070292447A1.

Biological target: CS40 anti-ManLAM monoclonal antibody
Experiment: competitive ELISA, ManLAM-coated plate, CS40 mixed with peptide; at 50 µg/ml peptide

ISLTEWSMWYRH [B11 synthetic peptide (…)] was tested, and the decrease in OD (inhibition of CS40 binding to ManLAM) was 100%.
